Changes are numbered by the printed parent chain. Blank lines part the entries; values can stand above or below the binder they belong to.
Experiments:
[1] = target: T1, recombinant Nogo-A fragment NI-Fr4 (rat, UniProt Q9JK11 233-941); assay: SPR (Biacore X); NI-Fr4 on Ni/NTA chip via His6, Fab (pASK107, Strep-tag II) at 0.25-6.8 µM, equilibrium fit
T1 construct: Truncated rat Nogo-A with N-terminal Strep-tag II and C-terminal His6
T1 sequence: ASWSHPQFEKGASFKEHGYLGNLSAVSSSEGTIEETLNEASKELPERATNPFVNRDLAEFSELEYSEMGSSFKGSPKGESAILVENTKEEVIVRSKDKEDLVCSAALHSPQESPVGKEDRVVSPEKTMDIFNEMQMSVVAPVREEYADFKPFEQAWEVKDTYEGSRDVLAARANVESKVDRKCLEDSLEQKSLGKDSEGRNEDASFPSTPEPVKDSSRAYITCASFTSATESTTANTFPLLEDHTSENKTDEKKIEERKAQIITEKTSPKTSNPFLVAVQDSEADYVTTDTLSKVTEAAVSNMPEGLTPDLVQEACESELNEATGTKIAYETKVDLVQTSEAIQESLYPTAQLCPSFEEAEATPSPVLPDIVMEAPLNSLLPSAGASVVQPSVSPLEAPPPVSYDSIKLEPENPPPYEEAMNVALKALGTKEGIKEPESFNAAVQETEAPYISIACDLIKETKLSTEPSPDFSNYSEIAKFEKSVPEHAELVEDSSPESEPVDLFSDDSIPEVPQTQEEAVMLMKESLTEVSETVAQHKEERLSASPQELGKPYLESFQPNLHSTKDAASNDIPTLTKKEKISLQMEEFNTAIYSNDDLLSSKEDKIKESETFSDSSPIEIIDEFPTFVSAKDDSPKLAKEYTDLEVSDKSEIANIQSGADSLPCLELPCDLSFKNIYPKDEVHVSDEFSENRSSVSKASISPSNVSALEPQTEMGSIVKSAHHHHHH
Procedure: (§1) The thermodynamic affinity for the recombinant Nogo-A fragment NI-Fr4 was determined both for the II.1.8 mutant and for the wild-type IN-1 Fab fragment using the method of real time surface plasmon resonance (SPR) on a Biacore-X® system equipped with an Ni/NTA-derivatized sensor chip® (Biacore AB, Uppsala, Sweden). PBS containing 0.005% (v/v) surfactant P20 was used as continuous flow buffer as well as for dilution of proteins. Analysis was performed at 25° C. using a flow rate of 35 μl/min.
(§2) Then the Fab fragment (produced by means of the vector pASK107 and purified via the Strep-tag II; see Example 1)) was injected at a defined concentration (between 0.25 and 6.8 μM) for 2 minutes, followed by buffer flow for 4 minutes. The chip surface was regenerated using 70 μl 0.35 M EDTA, pH 8.0 in flow buffer prior to the next measurement. Each time-dependent binding isotherm of the Fab fragment was corrected for the background signal that was detected in the flow channel without NI-Fr4 using BIAevaluation software (Version 3.0). Resonance unit values for the bound Fab fragment at equilibrium for each applied concentration were then deduced and fitted (Voss and Skerra, supra) by non-linear least squares regression using an equation of the type y=a*x/(b+x). […]

[2] = target: T2, recombinant Nogo-A fragment NI-Fr2 (rat, UniProt Q9JK11 233-941, labelled with digoxigenin (molar ratio 5:1) in the colony screening assay); assay: ELISA, wells coated with NI-Fr2, bound Fab detected with anti-human Ckappa antibody-alkaline phosphatase, delta A405/delta t
T2 construct: Truncated rat Nogo-A with C-terminal Strep-tag, made in the E. coli periplasm; also called MI-Fr2; wild-type NI-Fr2
T2 sequence: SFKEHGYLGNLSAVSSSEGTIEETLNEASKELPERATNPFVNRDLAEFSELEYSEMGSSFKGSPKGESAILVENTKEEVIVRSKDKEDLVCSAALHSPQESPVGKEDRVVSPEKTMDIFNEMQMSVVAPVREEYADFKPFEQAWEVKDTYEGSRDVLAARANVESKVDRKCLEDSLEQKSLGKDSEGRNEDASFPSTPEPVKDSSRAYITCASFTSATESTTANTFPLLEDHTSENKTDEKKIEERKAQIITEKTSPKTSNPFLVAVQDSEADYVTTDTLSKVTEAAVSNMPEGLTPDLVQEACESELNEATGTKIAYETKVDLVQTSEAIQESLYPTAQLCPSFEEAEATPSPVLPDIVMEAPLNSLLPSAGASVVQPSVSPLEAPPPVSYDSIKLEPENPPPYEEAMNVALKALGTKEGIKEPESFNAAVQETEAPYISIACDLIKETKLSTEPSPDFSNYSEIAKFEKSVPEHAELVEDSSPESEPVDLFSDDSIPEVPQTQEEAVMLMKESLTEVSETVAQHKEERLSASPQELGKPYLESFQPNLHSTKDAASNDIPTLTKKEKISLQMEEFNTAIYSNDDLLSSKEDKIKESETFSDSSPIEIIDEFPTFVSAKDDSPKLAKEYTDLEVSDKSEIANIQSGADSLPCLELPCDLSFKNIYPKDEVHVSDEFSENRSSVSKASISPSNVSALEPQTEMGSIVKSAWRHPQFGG
Procedure: Antigen-binding activity of the mutant Fab fragments was subsequently tested by ELISA using the recombinant NI-Fr2 for coating of the microtitre plate wells (FIG. 2).
ELISA was carried out in a 96 well microtitre plate (Becton Dickinson, Heidelberg, Germany) at ambient temperature with incubation steps of 1 h unless otherwise stated. Three washing steps with PBS/T were used after each incubation, and residual liquid was removed thoroughly. The wells were coated for 4 h with 50 μl of a solution of MI-Fr2 at concentrations between 180 and 200 μg/ml in PBS buffer and then blocked with 200 μl 3% (w/v) BSA, 0.5% (v/v) Tween 20 in PBS. After washing, 50 μl of the purified recombinant Fab fragment was applied at a dilution series in PBS/T. The wells were then incubated with 50 μl anti-human Cκ antibody conjugated with alkaline phosphatase (Sigma), diluted 1:1000 in PBS/T. Signals were finally developed in the presence of p-nitrophenyl phosphate (Voss and Skerra, (1997) Protein Eng., 10, 975-982). Enzymatic activity was measured at 25° C. as the change in absorbance at 405 nm per min with a SpectraMAX 250 instrument (Molecular Devices, Sunnyvale, Calif.). The data were corrected for background values determined in wells that were merely coated with BSA and fitted by non-linear least squares regression as described by Voss and Skerra, supra

BSA = target: T3, BSA (bovine, UniProt P02769 25-607); assay: ELISA; BSA as antigen
T3 construct: Control antigen

[3] = target: T1, recombinant Nogo-A fragment NI-Fr4; assay: SPR (Biacore X); NI-Fr4 on Ni/NTA chip, equilibrium fit
Procedure: as §1, §2

[4] = target: T2, recombinant Nogo-A fragment NI-Fr2; assay: ELISA; NI-Fr2 coated, purified Fab (pASK88, His6), anti-human Ckappa-AP detection

T3 sequence (P02769 25-607 limits assumed): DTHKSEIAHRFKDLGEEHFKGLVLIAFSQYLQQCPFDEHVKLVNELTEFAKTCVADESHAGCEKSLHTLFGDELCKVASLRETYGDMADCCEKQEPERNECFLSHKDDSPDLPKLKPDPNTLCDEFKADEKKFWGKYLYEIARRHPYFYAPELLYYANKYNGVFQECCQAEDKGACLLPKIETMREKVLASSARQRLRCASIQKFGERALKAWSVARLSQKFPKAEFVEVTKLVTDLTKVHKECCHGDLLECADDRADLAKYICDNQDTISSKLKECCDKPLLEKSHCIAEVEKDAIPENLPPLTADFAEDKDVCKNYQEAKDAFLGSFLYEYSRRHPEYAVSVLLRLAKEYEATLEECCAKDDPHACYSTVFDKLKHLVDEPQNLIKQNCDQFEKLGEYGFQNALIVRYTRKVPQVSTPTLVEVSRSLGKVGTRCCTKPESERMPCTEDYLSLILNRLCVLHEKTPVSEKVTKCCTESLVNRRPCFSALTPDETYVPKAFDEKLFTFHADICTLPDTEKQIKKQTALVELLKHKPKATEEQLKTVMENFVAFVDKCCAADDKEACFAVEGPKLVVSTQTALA

binding result [2]: binds
binding result (BSA): no binding
B2: I.2.6 Fab fragment (IN-1 mutant) (Fab, V domains shown)
VH: EVKLHESGPGLVRPGTSVKISCKASGYTFTNYWLGWVKQRPGHGLEWIGDIYPGGGYTNYNEKFKGKATLTADTSSSTAYMQLSSLTSEDSAVYFCARFYYGSSYWYFDVWGQGTTVTVSS
VL: DIELTQSPAIMAASVGETVTITCGASENIYGALNWYQRKQGKSPQLLIYGATNLADGMSSRFSGSGSGRQYSLKISSLHPDDVATYYCQNVLRVPCTFGAGTKLEIK
notes: Chimeric Fab, human IgG1/kappa constant domains; also called mutant I.2.6; original I.2.6 Fab fragment

binding result [4]: binds
B4: I.1.4 Fab fragment (IN-1 mutant) (Fab, V domains shown)
VH: B2 VH
VL: B2 VL with R93P, C96W
notes: Chimeric Fab, human IgG1/kappa constant domains

The next lines start with the binder.

B1: recombinant wild-type IN-1 Fab fragment (Fab, V domains shown)
VH: B2 VH
VL: B2 VL with R93S, V94T, C96R
notes: Formats: pASK106 (ABD on light chain) in the colony screen, pASK88 (His6 on heavy chain) in ELISA, staining and neurite assay, pASK107 (Strep-tag II) in SPR; also called IN-1 wt; IN-1 (wild-type) Fab fragment
Kd [1]: 7.8 µM

B3: II.1.8 Fab fragment (Fab, V domains shown)
VH: B2 VH
VL: B2 VL with V91I, L92N, C96V
notes: also called II.1.8 mutant; antibody fragment II.1.8
fold improvement of KD over the wild-type IN-1 Fab fragment [3]: 8 fold
Kd [1]: 1.04 µM

— patent US20060287501A1 (Pieris, published 2006)
